According to PMC8115694, “Distinct axial and lateral interactions within homologous filaments dictate the signaling specificity and order of the AIM2-ASC inflammasome” (Nature Communications, 2021):

How the values were obtained:
[1] = biological target: the molecule itself; test: confocal fluorescence microscopy of fluor-labelled recombinant filaments; two differentially labelled (Alexa488, Dylight550) MBP-tagged PYD populations mixed at 1:1 ratio (1 uM each), polymerisation triggered by cleaving MBP with TEVp
[2] = biological target: the molecule itself; test: cryo-EM structure; helical reconstruction of the untagged AIM2 (1-117) filament; 2.75 uM protein cleaved for 30 min with 6 uM TEVp

B1: AIM2^PYD (residues 1-94) S94C, fluorophore-labelled (domain or fragment, human, UniProt O14862 1-94, looked up)
chain: MESKYKEILLLTGLDNITDEELDRFKFFLSDEFNIATGKLHTANRIQVATLMIQNAGAVSAVMKTIRIFQKLNYMLLAKRLQEEKEKVDKQYKC
modifications: fluorophore label (Alexa488 or Dylight550; FRET donor or acceptor); S94C for fluorophore labeling
notes: AIM2, human, pyrin domain, residues 1-94; Polymerisation is triggered by cleaving MBP with TEVp; the protein stands as nascent monomer or as preassembled filament; also called MBP-AIM2^PYD; source: MBP cleaved with TEVp in the assay; not shown: MBP, N-terminal, cleaved
**Q.** Does B1 bind [1]?
**A.** binds

B2: AIM2^PYD filament construct with ~20 a.a. of the unstructured linker (residues 1-117), untagged (domain or fragment, human, UniProt O14862 1-117, looked up)
chain: MESKYKEILLLTGLDNITDEELDRFKFFLSDEFNIATGKLHTANRIQVATLMIQNAGAVSAVMKTIRIFQKLNYMLLAKRLQEEKEKVDKQYKSVTKPKPLSQAEMSPAASAAIRND
notes: AIM2 (absent in melanoma 2), human, residues 1-117: PYD plus ~20 a.a. of the unstructured linker; Helical filament; 2.75 uM protein cleaved for 30 min with 6 uM TEVp before freezing; also called AIM2^IRND; source: MBP cleaved with TEVp; not shown: MBP, N-terminal, cleaved
**Q.** Does B2 bind [2]?
**A.** binds
